The results in this text go back to US20180215825A1 (BEIGENE, published 2018).

Numbering of substitutions follows the chain as printed.

T1: human FcγRIIAR131 expressed on HEK293 cells (human, UniProt P12318 34-317)
T1 construct: whole, on cells
T1 sequence (looked up): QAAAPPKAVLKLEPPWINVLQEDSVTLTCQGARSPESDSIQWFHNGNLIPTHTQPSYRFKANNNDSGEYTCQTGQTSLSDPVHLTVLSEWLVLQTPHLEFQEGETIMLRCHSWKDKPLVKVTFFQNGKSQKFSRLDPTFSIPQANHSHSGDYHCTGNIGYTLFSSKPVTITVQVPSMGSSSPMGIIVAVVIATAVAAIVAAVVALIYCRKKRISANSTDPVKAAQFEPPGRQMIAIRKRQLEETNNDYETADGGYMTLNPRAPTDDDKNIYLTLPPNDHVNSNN

T2: human FcγRIIAH131 expressed on HEK293 cells (human, UniProt P12318 34-317)
T2 construct: whole, on cells
T2 sequence (looked up): T1 sequence (looked up) with R134H

T3: human FcγRIIB expressed on HEK293 cells (human, UniProt P31994 43-310)
T3 construct: whole, on cells
T3 sequence (looked up): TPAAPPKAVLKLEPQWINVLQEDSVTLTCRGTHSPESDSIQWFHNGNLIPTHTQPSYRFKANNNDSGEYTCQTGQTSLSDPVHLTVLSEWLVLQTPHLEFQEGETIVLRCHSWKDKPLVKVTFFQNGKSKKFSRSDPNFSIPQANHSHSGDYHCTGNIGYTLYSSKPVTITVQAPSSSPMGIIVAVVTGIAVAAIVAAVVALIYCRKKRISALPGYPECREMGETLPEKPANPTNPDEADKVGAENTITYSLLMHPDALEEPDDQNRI

B1: hu333-4B2-IgG1mc (antibody)
heavy: EVQLVESGGGLVQPGGSLRLSCAVSGFSLTSYGVHWVRQAPGKGLEWVAVIWAGGSTNYADSVKGRFTISKDTSKNTVYLQMNSLRAEDTAVYYCAKPYGTSAMDYWGQGTLVTVSSASTKGPSVFPLAPSSKSTSGGTAALGCLVKDYFPEPVTVSWNSGALTSGVHTFPAVLQSSGLYSLSSVVTVPSSSLGTQTYICNVNHKPSNTKVDKKVEPKSCDKTHTCPPCPAPPAAAPSVFLFPPKPKDTLMISRTPEVTCVVVDVSHEDPEVKFNWYVDGVEVHNAKTKPREEQYNSTYRVVSVLTVLHQDWLNGKEYKCKVSNKALAAPIEKTISKAKGQPREPQVYTLPPSRDELTKNQVSLTCLVKGFYPSDIAVEWESNGQPENNYKTTPPVLDSDGSFFLYSKLTVDKSRWQQGNVFSCSVMHEALHNHYTQKSLSLSPGK
light: DIQMTQSPSSLSASVGDRVTITCKASQDVGIVVAWYQQKPGKAPKLLIYWASIRHTGVPSRFSGSGSGTEFTLTISSLQPDDFATYYCQQYSNYPLYTFGQGTKVEIKRTVAAPSVFIFPPSDEQLKSGTASVVCLLNNFYPREAKVQWKVDNALQSGNSQESVTEQDSKDSTYSLSSTLTLSKADYEKHKVYACEVTHQGLSSPVTKSFNRGEC
B2: hu333-4A2-IgG1mc (antibody)
heavy: B1 heavy with A60V, T73N, S74A
light: B1 light
B3: hu333-4B2-IgG1mf (antibody)
heavy: B1 heavy with A236G
light: B1 light
B4: hu333-4A2-IgG1wt (antibody)
heavy: not shown
VL: DIQMTQSPSSLSASVGDRVTITCKASQDVGIVVAWYQQKPGKAPKLLIYWASIRHTGVPSRFSGSGSGTEFTLTISSLQPDDFATYYCQQYSNYPLYTFGQGTKVEIK
notes: light chain constant region (kappa) not tied to an entry for this form

T4 sequence (Q9EP73 19-239): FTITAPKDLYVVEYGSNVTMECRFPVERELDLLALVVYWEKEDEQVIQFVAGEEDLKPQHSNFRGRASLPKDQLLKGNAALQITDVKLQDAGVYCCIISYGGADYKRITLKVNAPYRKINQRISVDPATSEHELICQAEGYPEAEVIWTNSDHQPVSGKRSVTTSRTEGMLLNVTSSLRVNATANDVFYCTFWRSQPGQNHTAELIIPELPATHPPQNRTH
T10 sequence (P02745 23-245, chain 1 of 3): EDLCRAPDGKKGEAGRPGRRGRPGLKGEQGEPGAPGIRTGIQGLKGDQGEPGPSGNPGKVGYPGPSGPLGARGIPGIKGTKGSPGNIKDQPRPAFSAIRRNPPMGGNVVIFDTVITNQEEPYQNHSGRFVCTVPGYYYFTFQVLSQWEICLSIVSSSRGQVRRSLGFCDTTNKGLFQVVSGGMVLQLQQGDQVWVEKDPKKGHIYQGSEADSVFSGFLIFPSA
T10 sequence (P02746 28-253, chain 2 of 3): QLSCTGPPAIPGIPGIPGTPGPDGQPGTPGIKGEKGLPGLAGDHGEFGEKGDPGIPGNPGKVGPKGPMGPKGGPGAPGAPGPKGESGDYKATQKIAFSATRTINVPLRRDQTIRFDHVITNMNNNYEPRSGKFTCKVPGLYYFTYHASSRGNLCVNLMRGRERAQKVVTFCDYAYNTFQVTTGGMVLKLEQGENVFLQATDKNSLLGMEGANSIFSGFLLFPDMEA
T10 sequence (P02747 29-245, chain 3 of 3): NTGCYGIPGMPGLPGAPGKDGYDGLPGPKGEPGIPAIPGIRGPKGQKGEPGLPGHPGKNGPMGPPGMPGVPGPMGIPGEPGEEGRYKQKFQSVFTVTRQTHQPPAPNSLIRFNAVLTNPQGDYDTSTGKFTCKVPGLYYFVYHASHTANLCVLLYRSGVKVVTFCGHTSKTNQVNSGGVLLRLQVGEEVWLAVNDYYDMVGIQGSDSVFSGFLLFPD
T7 sequence (P08637 17-254): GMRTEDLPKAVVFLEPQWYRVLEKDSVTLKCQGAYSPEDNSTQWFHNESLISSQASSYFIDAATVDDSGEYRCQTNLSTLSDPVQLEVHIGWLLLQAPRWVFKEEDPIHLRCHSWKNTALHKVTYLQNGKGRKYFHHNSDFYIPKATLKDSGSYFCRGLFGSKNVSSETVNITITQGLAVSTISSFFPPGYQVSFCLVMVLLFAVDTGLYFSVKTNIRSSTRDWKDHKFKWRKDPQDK

The first experiment concerns the target T4, mouse PD-L1/His (mouse (Mus musculus), UniProt Q9EP73 19-239).
T4 construct: extracellular domain; Said to be expressed and purified in a similar way to the human PD-L1/His; also called murine PD-L1/His; murine PD-L1; not shown: His tag
As to the kind of experiment: ELISA on coated mouse PD-L1/His, anti-human Fc-HRP [C]. How it is done:
(§1) The monkey PD-L1/His and murine PD-L1/His were expressed and purified in a similar way to the human PD-L1/His as described earlier. […] The synthesized full length mAb was named as Y1-IgG1mc. The ELISA assay was performed essentially in the same way as described in the previous section. Briefly, 200 ng of PD-L1 protein was coated on each well of Nunc MaxiSorp ELISA plate (Cat. No. 442404, Nunc, Thermo Fisher). After washing and blocking, indicated concentrations of anti-PD-L1 mAbs were added and incubated at room temperature for 1 hour. After washing, the bound anti-PD-L1 mAbs were detected using a HRP-conjugated goat anti-human Fc antibody (Cat. No. A0170, Sigma).
As to B1, the binding result is reported as “no binding (tested: 1 µg/ml)”.

With B2, the binding result is “no binding (tested: 1 µg/ml)”.

Take B3: the binding result was “no binding (tested: 1 µg/ml)”.

In another experiment the target is T5, human PD-L1-ECD/His (human, UniProt Q9NZQ7 19-238).
T5 construct: Expressed in 293-F cells; also called PD-L1/His; human PD-L1/His
T5 sequence (Q9NZQ7 19-238): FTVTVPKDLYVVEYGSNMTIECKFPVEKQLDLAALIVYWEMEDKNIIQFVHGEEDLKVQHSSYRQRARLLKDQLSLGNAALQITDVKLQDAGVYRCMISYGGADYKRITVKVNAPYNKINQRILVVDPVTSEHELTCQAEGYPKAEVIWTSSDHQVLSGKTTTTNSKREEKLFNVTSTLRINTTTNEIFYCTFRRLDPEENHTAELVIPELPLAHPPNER
As to the kind of experiment: ELISA on coated human PD-L1/His, anti-human Fc-HRP; x-axis printed as 'Ag concentration', mAb concentration according to paragraph 44 [A]. Here is the method:
as §1
(In general: An ELISA detects its analyte on a solid surface through an enzyme-linked reagent.)
For the molecule B1, the EC50 (read off the curve) (usually the concentration at which the effect is half-maximal) was about 0.03 µg/mL.

With B2, the “EC50 (read off the curve)” value is about 0.03 µg/mL.

For the molecule B3, the “EC50 (read off the curve)” value is about 0.03 µg/mL.

In the next experiment the target is T6, human FcγRIIIAV158 expressed on cells (human, UniProt P08637 17-254).
T6 construct: whole, on cells; Co-expressed with FcRγ subunit; on HEK293 cells in the FACS assays, on NK92MI/CD16V cells in the ADCC assay; also called CD16 (V158 allele)
T6 sequence (P08637 17-254 F176V limits assumed): as the sequence (P08637 17-254) above, with F160V counted along it
The experiment can be described thus: FACS, 10 µg/mL mAb as immune complex with biotin-PD-L1/His and neutravidin on FcγR-expressing HEK293 cells. From the text: (§2) Such bindings are thought to be more relevant under physiological condition, as the binding strength between monomeric γFc and most of the FcγRs is very weak. Human immune system also takes advantage of this mechanism to avoid non-specific activation of FcγRs by monomeric IgG which are present at high levels in serum.
On to B4, for which the MFI is 309 MFI.

Regarding B1, the MFI was 4.89 MFI.

For B2, the MFI came to 5.43 MFI.

Molecule B3 displayed an MFI of 4.83 MFI.

In the next experiment the target is T1, human FcγRIIAR131 expressed on HEK293 …. Described as above.
Text: as §2
For B4, the MFI worked out at 159 MFI.

Molecule B1 displayed an MFI of 5.28 MFI.

The molecule B2 came in with an MFI of 5.38 MFI.

Take B3: the MFI came to 4.92 MFI.

Another experiment has as its target T2, human FcγRIIAH131 expressed on HEK293 …. The description is as above.
Text: as §2
On to B4, for which the MFI stood at 599 MFI.

Molecule B1 gave an MFI of 8.09 MFI.

Consider B2, for which the MFI was 7.53 MFI.

Turning to B3, the MFI worked out at 7.27 MFI.

A further experiment has as its target T3, human FcγRIIB expressed on HEK293 cells. Described as above.
Text: as §2
In turn, B4 registered an MFI of 539 MFI.

Molecule B1 returned an MFI of 5.03 MFI.

As for B2, the MFI stood at 5.05 MFI.

Turning to B3, the MFI amounted to 5 MFI.

Another experiment concerns the target T7, human FcγRIIIAF158 expressed on HEK293 cells (human, UniProt P08637 17-254).
T7 construct: whole, on cells; Co-expressed with FcRγ subunit
The description is as above.
Text: as §2
For B4, the MFI is 74.2 MFI.

Molecule B1 returned an MFI of 6.81 MFI.

B2 displayed an MFI of 6.44 MFI.

B3 displayed an MFI of 6.76 MFI.

For a further experiment, the target named is T8, human FcγRI expressed on HEK293 cells (human, UniProt P12314 16-374).
T8 construct: whole, on cells; Co-expressed with FcRγ subunit
T8 sequence (P12314 16-374): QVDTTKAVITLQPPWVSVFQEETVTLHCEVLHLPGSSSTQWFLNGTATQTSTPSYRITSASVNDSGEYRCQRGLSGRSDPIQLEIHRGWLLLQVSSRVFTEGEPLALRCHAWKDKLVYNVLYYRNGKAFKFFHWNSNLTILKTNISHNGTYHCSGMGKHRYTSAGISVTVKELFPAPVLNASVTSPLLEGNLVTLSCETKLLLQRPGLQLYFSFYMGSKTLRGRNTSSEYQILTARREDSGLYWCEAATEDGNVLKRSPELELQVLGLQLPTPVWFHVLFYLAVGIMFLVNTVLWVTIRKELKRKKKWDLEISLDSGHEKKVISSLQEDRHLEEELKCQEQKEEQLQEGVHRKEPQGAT
Described as above.
Text: as §2
Consider B4, for which the MFI was found to be 3260 MFI.

Consider B1, for which the MFI stood at 7.01 MFI.

Consider B2, for which the MFI was 7 MFI.

In turn, B3 registered an MFI of 7.11 MFI.

For the next experiment, the target named is T9, human PD-L1, full length, expressed on cells (human, UniProt Q9NZQ7 19-290).
T9 construct: also called HEK293/PD-L1 cells; HEK293/OS8/PD-L1 cells
T9 sequence (Q9NZQ7 19-290 limits assumed): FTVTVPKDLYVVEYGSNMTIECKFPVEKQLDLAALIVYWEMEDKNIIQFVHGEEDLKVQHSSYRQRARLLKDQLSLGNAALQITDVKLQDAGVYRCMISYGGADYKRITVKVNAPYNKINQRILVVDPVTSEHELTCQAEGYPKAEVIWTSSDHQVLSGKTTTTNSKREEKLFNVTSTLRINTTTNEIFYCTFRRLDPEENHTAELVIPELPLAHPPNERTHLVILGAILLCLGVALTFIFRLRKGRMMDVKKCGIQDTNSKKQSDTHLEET
As to the kind of experiment: FACS competition with CD80/Fc on HEK293/PD-L1 cells.
As to B1, the IC50 (commonly the concentration that gives 50% inhibition) was found to be 0.103 µg/mL and the Max inhibition worked out at 100%.

On to B2, for which the IC50 was determined as 0.078 µg/mL and the Max inhibition came to 100%.

Turning to B3, the IC50 came to 0.118 µg/mL and the Max inhibition came out at 100%.

The next experiment addresses T9, human PD-L1, full length, expressed on …. As to the kind of experiment: FACS competition with PD-1/Fc on HEK293/PD-L1 cells.
Take B1: the half-inhibitory concentration (IC50) amounted to 0.167 µg/mL and the Max inhibition was found to be 100%.

Take B2: the IC50 was determined as 0.172 µg/mL and the Max inhibition was 100%.

Molecule B3 displayed an IC50 of 0.174 µg/mL and a Max inhibition of 100%.

Another experiment has as its target T10, human C1q (human, UniProt P02745 23-245; P02746 28-253; P02747 29-245).
T10 construct: Bought (Cat. No. A400, Quidel); also called complement component C1q
The experiment can be described thus: ELISA: antibody coated on the plate at the x-axis concentration, human C1q added (2 µg/mL), bound C1q detected with an anti-C1q mAb. How it is done: The ELISA-based C1q binding assay was done by conventional ELISA method with minor modification. […] After blocking and washing, the wells were incubated with 2 μg/mL of human C1q (Cat. No. A400, Quidel, San Diego, USA) at room temperature for 2 hours.
In the case of B4, the binding result is listed as “binds”.

Turning to B1, the binding result was “no binding (tested: about 20 µg/ml (coating concentration))”.

As to B2, the binding result was “no binding (tested: about 20 µg/ml (coating concentration))”.

As to B3, the binding result is listed as “no binding (tested: about 20 µg/ml (coating concentration))”.
